Target: human PD-1 expressed on cells (HuT78/PD-1, NK92MI/PD-1) (human, UniProt Q15116 25-288)
Assay: FACS binding (MFI)

human PD-1 expressed on cells (HuT78/PD-1, NK92MI/PD-1), sequence (Q15116 25-288): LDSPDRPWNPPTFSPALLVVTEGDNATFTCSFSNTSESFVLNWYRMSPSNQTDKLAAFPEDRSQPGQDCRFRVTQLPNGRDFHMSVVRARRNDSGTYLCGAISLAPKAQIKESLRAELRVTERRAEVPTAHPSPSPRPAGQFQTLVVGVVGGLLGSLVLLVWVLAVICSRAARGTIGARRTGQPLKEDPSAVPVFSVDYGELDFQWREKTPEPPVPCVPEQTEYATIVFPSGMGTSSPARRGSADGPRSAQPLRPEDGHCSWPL

EC50: 0.105 µg/mL
B1: murine mAb 317 (antibody, V domains shown)
VH: QVQLKESGPGLVAPSKNLSITCTVSGFSLTSYGVHWIRQPPGKGLEWLGVIWAGGSTNYNSALMSRLSISKDNSRSQVFLRMNSLQTDDTAMYYCARAYGNYWYIDVWGAGTTVTVSS
VL: DIVMTQTPKFLLVSAGDRVTITCKASQSVSNDVAWYQQKPGQSPKLLINYAFHRFTGVPDRFTGSGYGTDFIFTISTVQAEDLAVYFCHQAYSSPYTFGGGTKLEMK

From patent publication US20230303689A1 (published 2023)
